B1: h10A11 (IGKV4-1/IGHV3-73 R50K): humanized 10A11 heavy chain CDR point mutant (antibody, V domains shown)
VL: DIVMTQSPDSLAVSLGERATINCRSSKSLLHSNGNTYLYWYQQKPGQPPKLLIYRMSNLASGVPDRFSGSGSGTDFTLTISSLQAEDVAVYYCMQHLEYPLTFGQGTKLEIKRT
VH: EVQLVESGGGLVQPGGSLKLSCAASGFAFNTYALYWVRQASGKGLEWVGKIRSKSNNYATYYADSVKDRFTISRDDSKNTAYLQMNSLKTEDTAVYYCTRARFYYSDYGYAMDYWGQGTLVTVSS
B2: h10A11 (IGKV4-1/IGHV3-73 R52K): humanized 10A11 heavy chain CDR point mutant (antibody, V domains shown)
VL: B1 VL
VH: B1 VH with K50R, R52K
B3: h10A11 (IGKV4-1/IGHV3-73 V63L): humanized 10A11 heavy chain CDR point mutant (antibody, V domains shown)
VL: B1 VL
VH: B1 VH with K50R, V66L
B4: h10A11 (IGKV4-1/IGHV3-73 S52aT): humanized 10A11 heavy chain CDR point mutant (antibody, V domains shown)
VL: B1 VL
VH: B1 VH with K50R, S53T
B5: h10A11 (IGKV4-1/IGHV3-73 N53Q): humanized 10A11 heavy chain CDR point mutant (antibody, V domains shown)
VL: B1 VL
VH: B1 VH with K50R, N56Q
B6: h10A11 (IGKV4-1/IGHV3-73 D100aE): humanized 10A11 heavy chain CDR point mutant (antibody, V domains shown)
VL: B1 VL
VH: B1 VH with K50R, D107E
B7: h10A11 (IGKV4-1/IGHV3-73 Y59F): humanized 10A11 heavy chain CDR point mutant (antibody, V domains shown)
VL: B1 VL
VH: B1 VH with K50R, Y62F
B8: h10A11 (IGKV4-1/IGHV3-73 Y98F): humanized 10A11 heavy chain CDR point mutant (antibody, V domains shown)
VL: B1 VL
VH: B1 VH with K50R, Y104F
B9: h10A11 (IGKV4-1/IGHV3-73 G100cA): humanized 10A11 heavy chain CDR point mutant (antibody, V domains shown)
VL: B1 VL
VH: B1 VH with K50R, G109A
B10: h10A11 (IGKV4-1/IGHV3-73 S100T): humanized 10A11 heavy chain CDR point mutant (antibody, V domains shown)
VL: B1 VL
VH: B1 VH with K50R, S106T
B11: h10A11 (IGKV4-1/IGHV3-73 Y100bF): humanized 10A11 heavy chain CDR point mutant (antibody, V domains shown)
VL: B1 VL
VH: B1 VH with K50R, Y108F
B12: h10A11 (IGKV4-1/IGHV3-73 F97L): humanized 10A11 heavy chain CDR point mutant (antibody, V domains shown)
VL: B1 VL
VH: B1 VH with K50R, F103L
B13: h10A11 (IGKV4-1/IGHV3-73 S62T): humanized 10A11 heavy chain CDR point mutant (antibody, V domains shown)
VL: B1 VL
VH: B1 VH with K50R, S65T
B14: h10A11 (IGKV4-1/IGHV3-73 I51L): humanized 10A11 heavy chain CDR point mutant (antibody, V domains shown)
VL: B1 VL
VH: B1 VH with K50R, I51L
B15: h10A11 (IGKV4-1/IGHV3-73 Y100dF): humanized 10A11 heavy chain CDR point mutant (antibody, V domains shown)
VL: B1 VL
VH: B1 VH with K50R, Y110F
B16: h10A11 (IGKV4-1/IGHV3-73 Y99F): humanized 10A11 heavy chain CDR point mutant (antibody, V domains shown)
VL: B1 VL
VH: B1 VH with K50R, Y105F
B17: h10A11 (IGKV4-1/IGHV3-73 K64R): humanized 10A11 heavy chain CDR point mutant (antibody, V domains shown)
VL: B1 VL
VH: B1 VH with K50R, K67R
B18: h10A11 (IGKV4-1/IGHV3-73 Y55F): humanized 10A11 heavy chain CDR point mutant (antibody, V domains shown)
VL: B1 VL
VH: B1 VH with K50R, Y58F
B19: h10A11 (IGKV4-1/IGHV3-73 D61E): humanized 10A11 heavy chain CDR point mutant (antibody, V domains shown)
VL: B1 VL
VH: B1 VH with K50R, D64E
B20: h10A11 (IGKV4-1/IGHV3-73 K52bR): humanized 10A11 heavy chain CDR point mutant (antibody, V domains shown)
VL: B1 VL
VH: B1 VH with K50R, K54R
B21: h10A11 (IGKV4-1/IGHV3-73 Y58F): humanized 10A11 heavy chain CDR point mutant (antibody, V domains shown)
VL: B1 VL
VH: B1 VH with K50R, Y61F
B22: h10A11 (IGKV4-1/IGHV3-73 S52cT): humanized 10A11 heavy chain CDR point mutant (antibody, V domains shown)
VL: B1 VL
VH: B1 VH with K50R, S55T
B23: h10A11 (IGKV4-1/IGHV3-73 A56V): humanized 10A11 heavy chain CDR point mutant (antibody, V domains shown)
VL: B1 VL
VH: B1 VH with K50R, A59V
B24: h10A11 (IGKV4-1/IGHV3-73 R96K): humanized 10A11 heavy chain CDR point mutant (antibody, V domains shown)
VL: B1 VL
VH: B1 VH with K50R, R102K
B25: h10A11 (IGKV4-1/IGHV3-73 T57S): humanized 10A11 heavy chain CDR point mutant (antibody, V domains shown)
VL: B1 VL
VH: B1 VH with K50R, T60S
B26: h10A11 (IGKV4-1/IGHV3-73 A60V): humanized 10A11 heavy chain CDR point mutant (antibody, V domains shown)
VL: B1 VL
VH: B1 VH with K50R, A63V
B27: h10A11 (IGKV4-1/IGHV3-73 D65E): humanized 10A11 heavy chain CDR point mutant (antibody, V domains shown)
VL: B1 VL
VH: B1 VH with K50R, D68E

From patent publication US20230256092A1, “COMBINED USE OF ANTI-CCR8 ANTIBODY AND CHEMOTHERAPEUTIC AGENT” (Shionogi & Co., Ltd., priority 2020, published 2023) come the findings set out here.

Changes are numbered by the printed parent chain. In names and notes the source's numbering stands.

The target of this assay is T1, human CCR8 (Homo sapiens, UniProt P51685).
T1 construct: expressed in transfected cells; host or cells: 293 cells
The experiment in a line: Neutralizing activity: inhibition of Ca2+ influx by 200 nM hCCL1 in human CCR8 expressing 293 cells (FLIPR), Test Example 6. Particulars: Table 9; WT IC50/mutant IC50; humanized 10A11 heavy chain CDR mutants, IGKV4-1/IGHV3-73. In kind it is cell-based. Here is the method:
The antibody dilution diluted with a medium was added to human CCR8 expressing 293 cells in which a Ca^2+ indicator was incorporated beforehand, and Ca^2+ influx by addition of 200 nM hCCL1 (manufactured by BioLegend) was measured with FLIPR. […] The evaluation was performed at least three times, and IC50 was expressed as average±SD.
Regarding B1, the IC50 ratio was 0.12.
Under B2 stands “n.d. (The n.d. (=not detectable) indicates that the IC50 value of the mutant is 10 nM or more)”.
Under B3 stands 0.56; under B4, 0.22.
With B5, the IC50 ratio came out at 0.03.
On to B6, for which the IC50 ratio was 0.30.
For B7, the IC50 ratio is listed as 0.03.
As to B8, the IC50 ratio came to 0.07.
On to B9, for which the IC50 ratio is on record as 0.07.
Under B10 stands 0.64; under B11, 0.75; under B12, “n.d. (The n.d. (=not detectable) indicates that the IC50 value of the mutant is 10 nM or more)”.
For B13, the IC50 ratio stood at 1.60.
In the case of B14, the IC50 ratio was determined as 0.22.
Regarding B15, the IC50 ratio worked out at 0.55.
In the case of B16, the IC50 ratio is given as 0.80.
As for B17, the IC50 ratio was found to be 0.54.
For the molecule B18, the IC50 ratio came to 0.47.
For the molecule B19, the IC50 ratio is listed as 0.25.
As to B20, the IC50 ratio worked out at 0.47.
In the case of B21 it was 0.50; in that of B22, 0.53.
Turning to B23, the IC50 ratio was determined as 0.55.
For B24, the IC50 ratio entry is on record as “n.d. (The n.d. (=not detectable) indicates that the IC50 value of the mutant is 10 nM or more)”.
In the case of B25, the IC50 ratio is 0.49.
In the case of B26, the IC50 ratio turned out to be 0.67.
As for B27, the IC50 ratio stood at 1.30.
